Experiments:
[1] = target: RNAP-HrpL holoenzyme (His-tagged) (Pseudomonas syringae pv. actinidiae | not stated) (UniProt P37929); assay: MST; RNAP-HrpL holoenzyme labelled with RED-Tris-NTA, 50 nM, titrated with GST-TrpR2 from 0.38 nM to 25 μM; MST buffer; 25℃; Monolith NT.115, medium MST power, 90 % LED power; triplicate
[2] = target: GST tagged TrpR2 (Pseudomonas syringae pv. actinidiae M228); assay: MST

UniProt P37929, sequence (P37929 whole entry, looked up): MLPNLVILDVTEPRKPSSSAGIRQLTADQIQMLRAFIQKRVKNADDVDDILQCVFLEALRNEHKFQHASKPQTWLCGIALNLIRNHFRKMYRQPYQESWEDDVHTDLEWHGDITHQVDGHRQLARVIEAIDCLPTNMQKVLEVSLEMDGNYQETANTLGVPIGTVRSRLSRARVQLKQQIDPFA

Substance | Kd [1] [µM] | Kd [2] [µM]
GST tagged TrpR2 (natural protein) | 2.41 | 
RNAP-His |  | 7.75

— publication PMC12145522
